Test results published in patent US20240360224A1 (ORIONIS BIOSCIENCES, published 2024).

Target: T1, human Clec9A (human, UniProt Q6UXN8 1-241)
T1 construct: Expressed on transfected CHO-K1, HEK293-T and HL116 cells, or native on human dendritic cells; also called hClec9A; C-type lectin domain family 9 member A
Assay: flow cytometry on HEK293-T cells transfected with human Clec9A; His-tagged VHH at 2 µg/ml, anti-His FITC antibody; single concentration
Method: The binding characteristics of various VHHs (as described in Example 1) were tested by flow cytometry. HEK293-T cells were transfected with a human Clec9A expression plasmid and stained with the His-tagged VHHs at 2 μg/ml, followed by staining with an anti-His Fitc conjugated antibody. Binding was measured by detecting cellular fluorescence via flow cytometry.

T1 sequence (Q6UXN8 whole entry, the tested form may be a part): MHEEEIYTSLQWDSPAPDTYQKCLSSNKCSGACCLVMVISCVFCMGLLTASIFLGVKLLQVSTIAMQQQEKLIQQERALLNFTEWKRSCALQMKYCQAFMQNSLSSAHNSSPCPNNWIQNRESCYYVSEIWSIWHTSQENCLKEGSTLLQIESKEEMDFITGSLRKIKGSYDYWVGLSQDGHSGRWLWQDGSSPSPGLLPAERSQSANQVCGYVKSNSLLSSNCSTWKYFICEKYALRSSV

Binder | binding result
1LEC 84 (VHH, Entry includes C-terminal AAA-HA-His6 (pMECS)) VHH: QVQLQESGGGLVQPGGSLRLSCAASGSIFSIAAMGWYRQAPGKQRELVAAITSGGRRAYADSVKGRFTISRDNDENTVALQMNSLKPEDTDVYYCNAKADHNDYWGQGTQITVSS | binds
1LEC 70 (VHH, Entry includes C-terminal AAA-HA-His6 (pMECS)) VHH: QVQLQESGGGLVQPGGSLRLSCAASGSIFSINAMGWYRQAPGKQRELVAAITNQGRLTYADSVKGRFTISRDNAKNTVFLQMDSLKPEDTAVYYCNAKWYDPLVIEYYDNWGQGTQVTVSS | binds
3LEC 66 (VHH, Entry includes C-terminal AAA-HA-His6 (pMECS)) VHH: QVQLQESGGGLVQPGGSLRLSCAASRSFFSFNAMGWYRQAPGKQRELVAAITNGGRIAYGTSVMGRFTISRDNAKNTVYLQMDSLKPEDTAVYYCNAKPAPVYGSTVGDYWGQGTQVTVSS | binds
2LEC 16 (VHH, Entry includes C-terminal AAA-HA-His6 (pMECS)) VHH: QVQLQESGGGLVQPGGSLRLSCLASRSFSSFNAMGWYRQAPGKERELVAAITNGGRIAYGIAVNGRFTISRDNAKNTVYLQMNSLKPEDTAVYYCNAKPTPVYGSTVGDYWGQGTQVTVSS | binds
1LEC 28 (VHH, Entry includes C-terminal AAA-HA-His6 (pMECS)) VHH: QVQLQESGGGLVQSGGSLRLSCAASGSVFSINAWGWYRQAPGKQRELVAAITNQGRIAYAPSVNGRFTISRDSAKNTVYLQMNSLKPEDTAVYYCNAKPTPVYGSTVGDYWGQGTQVTVSS | binds
2LEC 59 (VHH, Entry includes C-terminal AAA-HA-His6 (pMECS)) VHH: QVQLQESGGGLVQPGGSLRLSCAVSRNFFSINAMGWYRQAPGKQRELVAAITNGGRIAYGTSVMGRFTISRDDAKNTVDLQMNSLRPEDTAVYYCNAKAIPVYGSTVEDYWGQGTQVTVSS | binds
2LEC 93 (VHH, Entry includes C-terminal AAA-HA-His6 (pMECS)) VHH: QVQLQESGGGLVQAGGSLRLSCAASGSIFSINAMGWYRPALGEQRELVAAITTGGRTTYVDSVKGRFSISRDNAKNTVYLQMNSLKPEDTAVYFCKAFTRDEDFWGQGTQVTVSS | binds
1LEC 30 (VHH, Entry includes C-terminal AAA-HA-His6 (pMECS)) VHH: QVQLQESGGGLVQAGGSLRLSCAASGSILSINSMGWYRPALGNQRELVAAITNDGRTTYVDSVKGRFTISRDNAKNTVYLQMNSLKPEDTAVYWCKAFTRDKDYWGQGTQVTVSS | binds
1LEC 63 (VHH, Entry includes C-terminal AAA-HA-His6 (pMECS)) VHH: QVQLQESGGGLVQAGGSLRLSCAATGDISSINAMGWHRPARGNERELVAAITNGGRTTYVDSVKGRFTISRDNAKNTVYLQMNSLKPEDTAVYFCKAYTRDEDYWGQGTQVTVSS | binds
2LEC 53 (VHH, Entry includes C-terminal AAA-HA-His6 (pMECS)) VHH: QVQLQESGGGLVQAGGSLRLSCAASGSIDSINAMGWYRPALGEQRELVAAITTGGRTAYVDSVKGRFTISRDAAKNTVYLQMNSLKPEDTAVYSCKAFTRDTDYWGQGTQVTVSS | binds
2LEC 90 (VHH, Entry includes C-terminal AAA-HA-His6 (pMECS)) VHH: QVQLQESGGGLVQTGGSLRLSCAASGSIFSFNAMGWYRQAPGKQRELVAAITDGGRLTYADSAKGRFTISRENTRNTVHLQMSSLKAEDTADYYCTIWTRDRQQYWGQGTQVTVSS | binds
3LEC 55 (VHH, Entry includes C-terminal AAA-HA-His6 (pMECS)) VHH: QVQLQESGGGLVQPGGSLKLSCAASGSIFSFNAMGWYRQAPGKQRELVAAITDGGRLTYADSAKNRFTISRENTRNTVHLQMSSLKAEDTAVYYCTIWTKDRQQYWGQGTQVTVSS | binds
3LEC 30 (VHH, Entry includes C-terminal AAA-HA-His6 (pMECS)) VHH: QVQLQESGGGLVQTGGSLRLSCAASGSIFSINSMGWYRQAPGKQRELVAAITSQGRSTYADSAKGRFTISLGNARNTVNLQMSSLKTEDTAVYYCTIWARDRQQYWGQGTQVTVSS | binds
2LEC 26 (VHH, Entry includes C-terminal AAA-HA-His6 (pMECS)) VHH: QVQLQESGGGLVETGGSLRLSCAASGSIFSINAMGWYRQAPGKQRELVAAITDQGRLAYADSAKGRFTISRENARNTLHLQMSSLKAEDTAVYYCTIWDRDRQQYWGQGTQVTVSS | binds
2LEC 54 (VHH, Entry includes C-terminal AAA-HA-His6 (pMECS)) VHH: QVQLQESGGGLAQPGGSLQLSCAASGRAFSTNSMGWYRQASGKQRELVAAITSQGRITLADSVKGRFTISSDNTKNTVFLQMNSLKPEDTAVYYCNAWTTLGTFGGQGTQVTVSS | binds
2LEC 13 (VHH, Entry includes C-terminal AAA-HA-His6 (pMECS)) VHH: QVQLQESGGGLVQAGASLRLSCAASGSIFSINAMGWYRQAPGKQRELVAAITNQGRTTYADSVKGRFTISRDNAKNTVYLQMDSLEPEDTAIYYCKGFSPTGDYWGQGTQVTVSS | binds
1LEC 9 (VHH, Entry includes C-terminal AAA-HA-His6 (pMECS)) VHH: QVQLQESGGGLVQAGGSLRLSCAASGSITSINAMGWYRQAPGKQRELVAAITSGGRLSYADSVKGRFTISRDNAESTVALQMNSLKPEDTAVYSCAAFQSSGIDWGQGTQVTVSS | binds
1LEC 7 (VHH, Entry includes C-terminal AAA-HA-His6 (pMECS)) VHH: QVQLQESGGGLVQPGGSLRLSCAASGRISSINSMGWYRQAPGNQRELVAAITNGGAKTYADSVKGRFTISTDNAGNTVYLQMDSLRPEDTAVYYCKAFTRRDDYWGQGTQITVSS | binds
1LEC 42 (VHH, Entry includes C-terminal AAA-HA-His6 (pMECS)) VHH: QVQLQESGGGLVQPGGSLRLSCAASGRVFSINAMGWYRQAPGKQRELVAAITNQGATTYADSVKGRFTISRDTAGNTVYLQMNSLRPEDTAVHYCKAFTRTDDYWGQGTQVTVSS | binds
2LEC 68 (VHH, Entry includes C-terminal AAA-HA-His6 (pMECS)) VHH: QVQLQESGGGLVQPGESLRLSCAASGSIFSINAMGWYRQAPGKQRELVAAITDGGAKTYADSVKGRFTISTDNAGNTVYLQMDSLRPEDTAVYYCKAFTRGNDYWGQGTQVTVSS | binds
3LEC 11 (VHH, Entry includes C-terminal AAA-HA-His6 (pMECS)) VHH: QVQLQESGGGLVQPGGSLRLSCAASGSISSINAMGWYRQAPGKQRELVAAITGQGRTTYADSVKGRFTISRDGAKNTVYLQMNSLKPEDTAVYYCKVFAADGMEYWGKGTQVTVSS | binds
2LEC 23 (VHH, Entry includes C-terminal AAA-HA-His6 (pMECS)) VHH: QVQLQESGGGLVQPGGSLRLSCAASGTSFSINGMAWYRQAPGGQRELVGGITSDGSTGYADSVKGRFTVSRDNAKNTVYLQMNRLKPEDTAVYYCGTSTPRGDSYWGQGTQVTVSS | binds

The next lines start with the values.

binding result | Binder
binds | 3LEC 36 (VHH, Entry includes C-terminal AAA-HA-His6 (pMECS)) VHH: QVQLQESGGGLVQPGGSLRLSCAASGRIGSINSMGWYRQAPGKQREMVAAITNGGATVYADSVKGRFTISRDNAGNTVDLHMNSLRPEDSAVYYCKAFTRGDDYWGQGTQVTVSS
binds | 2LEC 38 (VHH, Entry includes C-terminal AAA-HA-His6 (pMECS)) VHH: QVQLQESGGGLVQPGGSLRLSCAASGRIFDINAMGWYRQAPGKQRELVAAITNGGQTTYADSVKGRFTISRDNAGNTVYLQMNSLRPEDTAVYYCKAFTRSDDYWGQGTQVTVSS
binds | 3LEC 57 (VHH, Entry includes C-terminal AAA-HA-His6 (pMECS)) VHH: QVQLQESGGGLVQPGGSLRLSCAASGRISSINSMGWYRQAPGKQRELVAAITNGGAKTYADSVKGRFTISRDGAGNTVYLQMDNLRPEDTAVYYCKAFTRTYDYWGQGTQVTVSS
binds | 2LEC 6 (VHH, Entry includes C-terminal AAA-HA-His6 (pMECS)) VHH: QVQLQESGGGWVQPGGSLRLSCAATGSIVSINAIGWYRQAPGKQRELVASITNQGIRNYSTSVMGRFTISRDDVKNTVSLQMNSLKPEDSAVYYCKGFAGWGKEDYWGQGTQVTVSS
binds | 2LEC 55 (VHH, Entry includes C-terminal AAA-HA-His6 (pMECS)) VHH: QVQLQESGGGLVQTGESLSLSCAVASGSIISINSMGWYRQAPEKQRELVAAITVDGRLAYADSAKHRFTISKESARNTVHLHMSSLKPEDTAVYYCTIWVRDGQQYWGQGTQVTVSS
binds | 3LEC 69 (VHH, Entry includes C-terminal AAA-HA-His6 (pMECS)) VHH: QVQLQESGGGLVQPGGSPRLSCAASGRFFRVNAMGWYRQAPGKQRELVAAITNGGQTAYADSVKGRFTISRDSAKNTVYLQMNSLKSEDTAVYYCKVFAADGMEYWGKGTQVTVSS
binds | 1LEC 92 (VHH, Entry includes C-terminal AAA-HA-His6 (pMECS)) VHH: QVQLQESGGGLVQPGGSLRLSCAASGSISSINAMGWYRQAPGNQRELVAAITNQGRVTYADSVKGRFTISRDGAKNTVYLQMNSLKPEDTAVYYCKVFAASGMEYWGKGTQVTVSS
binds | 2LEC 48 (VHH, Entry includes C-terminal AAA-HA-His6 (pMECS)) VHH: QVQLQESGGGLVQAGGSLRLSCAASGTLFSINGMAWYRQAPGKRRELVGGITSDGSTGYADSVKGRFTISRDNAKNTAYLQMNSLKPEDTAVYYCGTSTPRGDSYWGQGTQVTVSS
binds | 1LEC 91 (VHH, Entry includes C-terminal AAA-HA-His6 (pMECS)) VHH: QVQLQESGGGLVQPGGSLRLSCAASGFTFDDYAIGWFRQAPGKEHEGVSCISRSDGSTYYDDSVKGRFTISSDNAKNTVYLQMNSLKPEDTAVYYCAAEVPSTYSCSGFREDYKGKGTQVTVSS
binds | 1LEC 62 (VHH, Entry includes C-terminal AAA-HA-His6 (pMECS)) VHH: QVQLQESGGGLVQPGGFLSLSCAASGSMHSVNSMAWYRQVPGKQRELVAAITSGGRLAYAPSVNGRFTISRDYAKNTIHLQMNSLEPEDTAVYYCAALNSATTYWGQGTQVTVSS
binds | 1LEC 88 (VHH, Entry includes C-terminal AAA-HA-His6 (pMECS)) VHH: QVQLQESGGGLVQPGGSLRLSCAAIGNIASITAMGWYRQAPGKQRELVAAITSASASRTTYADSVKGRFTISRDNAKNTVYLQMNSLQPEDTAVYYCKGFRSGADDYWGQGTQVTVSS
